B1: SOAT1 (parent)
chain: KSAAMLAVFAVSAVVHEYALAVCL
B2: FBXO3 (parent)
chain: GGFPIIRDQIFRYVHDPECVATTG

Variants of: B1
Test: protein stability index of a GFP-peptide fusion (GPS, HEK-293T) (PSI 1-6); higher = more stable
Details: c terminus: a fixed tail appended
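Note: lentivirally expressed fusions sorted by FACS into six bins by GFP to DsRed ratio, PSI derived from sequencing read proportions per bin multiplied by bin number.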

Protein stability index: each site, then its substitutions
V15: G 2.69, H 3.15, Q 2.06, R 1.83
V14: H 2.91, N 2, W 4, F 1.91, L 3.6, D 3.41
A13: N 2.97, L 2.81, F 2.17, Q 5.23, W 3.01, T 4.82, K 1.37, I 3.04
A4: M 2.94, H 3.89, D 2.45, W 1.72, Y 2.44, N 2.2, K 2.98, L 1.85, I 1.5, G 2.92, V 3.08, T 3.43
A3: K 2.88, M 3.72, Y 2.83, I 3.19, T 2.06, D 2.23, W 1.96, P 3.72, Q 3.47, H 3.8, V 1.5, N 2.7, G 2.25, S 2.25
F9: M 2.35, R 2.15, D 4.42, W 3.01, V 1.47, H 3.12, Q 3.43, P 1.92, A 1.73, S 2.3
M5: R 4.56, C 3.11, G 3.1, T 3.55, E 3.88, A 2.63, L 3.74, F 2.22, Q 3.61, W 2.56, S 4.27, D 3.48, N 2.5, P 3.6
V8: Y 3.31, N 3.98, W 3.01, P 3.28, K 2.31, S 3.28, F 4.29, D 2.77, A 2.89, I 1.62, C 2.43, H 3.18, T 3.11
V11: D 3.09, F 2.89, N 3.47, C 2.8, H 1.4, A 2.8, P 4.61, Q 3.03, R 2.94
L6: G 2.94, P 3.78, N 3.55, R 2.02, Q 2.68, M 4.28, I 3.09, E 2.25, H 2.73, F 2.21, D 2.74, K 2.46, C 3.42
A10: Q 3.2, G 3.62, P 3.61, S 3.12, V 3.03, H 3.74, E 2.05, T 1.83
S2: T 3.26, M 2.99, Y 3.58, C 2.54, N 2.09, R 2.91, P 2.97, E 3.57, L 2.66, I 2.12
S12: R 2.11, A 1.63, N 4.18, P 2.41, W 2.99, Q 3.61, I 3.04, T 2.46
A7: H 2.91, P 2.58, D 2.99, W 2.69, R 3.98, T 3.23, Y 3.49, G 4.09, V 2.07, I 1.49, L 3.14, Q 2.59, M 1.54
H16: L 2.94, D 2.58, P 2.51, S 2.73, K 2.88, T 2.1
K1: R 3.37, H 2.28, V 1.84, G 4.12, W 3.4, F 2.89, N 1.73, C 1.84, D 4.34, E 3.54, M 2.64, A 3.09, T 4.59, Q 3.7, S 5.65

Variants of: B2
Test: as above
Details: c terminus: a fixed tail appended

Protein stability index, by site and new letter:
V20: L 1.81, F 1.8, K 1.27, S 2.32, E 2.22, Y 1.9, M 1.79, I 2.19, T 1.68, R 1.63, P 2.23, A 2.24, D 1.45, H 2.01, G 2.08, N 2.49, W 1.78, Q 2.04, C 2.84
E18: K 2.38, P 2.1, S 1.57, R 1.69, N 1.8, D 1.68, T 1.98, H 1.99, A 2.61, V 1.7, I 1.92, M 1.79, W 1.38, Q 1.28, C 2.04, Y 2.52, G 1.71, F 1.88, L 1.58
H15: Y 1.74
A21: T 1.69, M 2.42, S 1.93, P 1.86, L 1.45, Y 2.49, V 1.36, E 1.55, C 1.39, H 2.77, N 1.5, W 1.7, K 1.62, I 1.5, D 1.06, R 1.82, Q 2.05, G 2, F 1.64
T22: D 2.25, L 1.83, I 2.26, S 1.63, N 2.61, F 1.67, C 1.72, R 2.56, P 2.23, Y 1.88, Q 1.76, M 1.53, H 1.92, A 1.74, E 2.28, V 1.67, K 1.64, G 1.66, W 1.84
D16: T 2.37, P 2.47, N 1.8, W 2.72, A 1.86, C 1.94, K 2.3, E 2.56, M 1.88, F 1.4, H 1.46, Y 2.26, I 2.06, Q 2.25, G 1.93, R 1.5, V 2.05, S 2.2, L 1.75
T23: H 1.89, F 2.25, M 1.73, L 1.57, D 1.66, C 1.91, S 1.59, A 1.8, E 2.09, V 1.61, R 1.64, P 1.71, Q 1.96, N 2.13, I 1.89, Y 1.61, K 2.03, G 1.12
C19: D 2.49, R 1.79, E 2.47, K 1.78, H 1.57, G 1.73, V 2.08, Q 1.94, T 2.09, S 1.9, I 1.55, W 2.15, A 1.6, P 1.94, M 2.31, F 1.57, N 1.74, L 1.72, Y 1.81
P17: I 1.43, R 1.49, T 2.42, F 2.01, C 1.83, N 2.61, Y 1.64, Q 1.97, S 2.93, D 2.91, A 1.84, L 1.81, E 2.34, K 2.47, V 1.46, W 2.01, G 2.11, H 1.83, M 2.1
G24: M 1.33, Q 2.78, R 2.22, L 1.96, I 1.5, K 1.96, D 2.22, C 1.7, W 1.61, Y 1.99, S 1.81, V 1.69, A 1.83, T 2.49, F 1.93, N 2.31, H 2.25, P 1.82, E 2.22
